# Measured values taken from the RNAGym collection of RNA variant scans (doi:10.1073/pnas.2313332121).
# Fewer inactive variants are shown than the library holds.
# B1: TPR 5TU (parent)
# chain: GGAUCUUCUCGAUCUAACAAAAAAGACAAAUCUGCCACAAAGCUUGAGAGCAUCUUCGGAUGCAGAGGCGGCAGCCUUCGGUGGCGCGAUAGCGCCAACGUUCUCAACUAUGACACGCAAAACGCGUGCUCCGUUGAAUGGAGUUUAUCAUG
# Variants of: B1
# Assay: polymerase ribozyme fitness, log enrichment relative to wild type (log ratio); higher = more active; in vitro selection for triplet polymerase activity
# Method in brief: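 After PCR construction and transcription, each subunit's mutant library from a heterodimeric triplet polymerase ribozyme was annealed with a biotinylated primer, the partner subunit and triplets. Incubation was frozen, at −7 °C, and extended constructs were gel-excised, bound to streptavidin beads and amplified by RT-PCR, in one selection round done in triplicate. Fitness is the logarithm of a genotype's enrichment divided by that of the wild type, from inverse-variance-weighted replicate averages of Illumina-sequenced inputs and outputs. The base of the logarithm is 2, and genotypes needed ≥10 input reads and ≥1 read per output.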
row,Variant,polymerase ribozyme fitness (log ratio)
1,GGAUCUUCUCGAUGUAACAAAAAAGACAAAUCUGCCACGAAGCUUGAGUGCAUCUACGGAUGCAGAGGCGGCAGCCUUCGUUGGCGCGAUAGCGCCAACGUUCUCAACUAUGACACGCAAAACGCGUGCUCCGUUGAAUGGAGUUUAUCAUG,≤ -4.2
2,GGAUCUUCUCGAUGUAACAAAAAAGACCAAUCUGCCACAAAGCUUGGGAGCAACUUCGGAUGCAGAGGCGGCAGCCUUCGGUGUCGCGAUAGCGCCAACGUUCUCAACUAUGACACGCAAAACGCGUGCUCCGUUGAAUGGAGUUUAUCAUG,≤ -4.2
3,GGAUCUUCUCGAUGUAACACAAAAGACAAAUCUGCCAUAAAGCUUGAGAGCAUCUUCGGAUGCAGAGGCGGCAGCCUUCGGUGGCGCGAUAGCGCCAACGUUCUCAACUAUGACACGCAAAACGCGUGCUCCGUUGAAUGGAGUUUUUCAUG,-2.09
4,GGAUCUUCUCGAUGUAACAAAAACGUCAAAUCUGCAACAAAGCUUGAGAGCAUCUUCGGAUGCAGAGGCGGCGGCCUUCGGUGGCGCGAUAGCGCCAACGUUCUCAUCUAUGACACGCUAAACGCGUGCUCCGUUGAAUGGAGAUUAUCAUG,≤ -4.2
5,GGAUCUUCUCGAUGUAACAAAAAAGGCAAAUCUGCCACAAAGCUUGAGAGCAUCUGCGGAUGCAGAGGCGGCUGCCUUCGGUGGCGCGAUAGCGCCAACGUUCUCAACUAUGACACGCAAAACGCGUGCUCCGUUGAAUGGAAUUUAUCAUG,≤ -4.2
6,GGAUCUUCUCGAUGUAACAAAAAAGACAGAUCUGCCACAAAGCUUGAGAGCAUCUUCGGGUGCAGAGGCGGCAGCCUUCGGUGGCGCGAUAGCCCCAAUGUUCUCAACUAUGAUACGCAAAACGCGUGCUCCGUUGAAUGGAGUUUAUCAUG,≤ -4.2
7,GGAUCUUCUCGAUAUAACAAAAAAGACAAAUCUGCCACAAAGCUUGAGAGCAUCUUCGGAGGCAGAGGCGGCAGCCUUCGGUGGCGCGAUAGCGCCAACGUUCUCAACUAAGACACGCAACACGCGUGCUCCGUUGAAUGGAGUUUAUCAUG,≤ -4.2
8,GGAUCUUCUCGAUGUAACAAAAAAGACAAAUCUGCCACGAAGCUUGAGAGCAAUUUCGGAUGCAGAGGCGGCAGCCUUCGGUGGCGCGAUAGAGCCAACGUUCUCAACUAUGACACGCAAAACGCGUGCUCCGUUGAAUGGAGUUUAUCAUG,≤ -4.2
9,GGAUCUUCUCGAUAUAACAAAAAAGACAAAUCUGCCACAAAGCUUGAGAGCAUCUUCGGAUGCAGAGGCGGCAGCCUUCGGAGGCGCGAUAACGCCAACGUUCUCAACUAUGACACGCAAAACGCGUGCUCCGUUGAAUGGAGUUUAUCAUG,≤ -4.2
10,GGAUCUUCUCGAUGUAACAAAAAAGACAAAUCUGCCUCAAAGCUUGAGAGCAUCUUCGGAUGCAGAGGCGGCAGCCUUCGGUGGCUCGUUAGCGCCAACGUUCUCAACUAUGACACGCUAAACGCGUGCUCGGUUGAAUGGAGUUUAUCAUG,≤ -4.2
11,GGAUCUUCUCGAUGUAACAAACAAGACAAAUCUGCCACAAAGCUUGAGAGCAUCUUCGGAUGCAGAGGCGGCUGCCUUCGGUGGCGCGAUAGCGCCAACGUUCUCAACUAUGACACGCAAAACGCGUGCUCCGUUGAAUGGAGUUUAUCAUG,-3.92
12,GGAUCUUCUCGAUGUAACAAAAAAGACAACUCUGCCACAAAGCUUGAGAACAUCUUCGGAUGCAGAGGCGGCAGCUUUCGGUGGCGAGAUAGCGCCAACGUUCUCAGCUACGACACGCAUAACGCGUGCUCCGUUGAAUGGAGUUUAUCAUG,≤ -4.2
13,GGAUCUUCUCGAUGUAACGAAAAAGACAAAUCUGCCACAAAGCUUGAGAGCAUUUUCGGAUGCAGAGGCGGCAGCGUUCGGGGGCGCGAUAGCGCCAACGUUCUCAACUAUGACACGCGAAACGCGUCCUCCGCUGAAUGGAGUUUAUCAUG,≤ -4.2
14,GGAUCUUCUCGAUGUAACAAAAACGACAAAUCUGCCACAAAGCUUGAGGGCAUCUUCGGAUGCAGAGGCGGCAGCCUUCGGUGGCGCGAUACCGCCAACGUUCUCAACUAUGACACGCAAAACGCGUGCUCCGUUGAAUGGAGUUUAUCAUG,≤ -4.2
15,GGAUCUUCUCGAUGUAACACAAAAGACAAAUCUGCCACAAAGCUUGAGAGCAUCUUCGGAUGCAGAGGCGGCAGCCUUCGGUGGCGCGAUACCGCCAACGUUCUCAACUAUGACACGCAAAACGGGUGCUCCGUUGAAUGGAGUUUAUCAUG,-3.88
16,GGAUCUUCUCGAUGUAACAAAAAAGACAUGUCUGCCACAAAGCUUGAGAGCAUCUUCGGAUGCAGAGGCGGCAGCCUUCGGUGGCGCGAUAGCGCUAACGUUCUCAACUAUGACACGCAAAACGCGUGCUCCGUUGAAUGGAGUUUAUCAUG,≤ -4.2
17,GGAUCUUCUCGAUAUAACAAAAAAGACAAAUCUGCCACAAAGCUUGAGAGCAACUUCGGAUGCAGAGGCGGCAGCCUUCGGUGGCGCGAUAGCCCCAACGUUCUCAACUAUGACACGCAAAACGCGUGCUCCGUUGAAUGGAGUUUAUCAUG,-3.67
18,GGAUCUUCUCGAUGUAACAAGAAAGACAAAUCUACCCCAAAGCUUGAGACCAUCUUGGGCUGCGGAGGCGGCAGCCUUCGGUGGCGCGAUAGCGCCAACGUUCUCAACUAUGACACGCAAAACGCGUGCUCCGUUGAAUGGAGUUUAUCAUG,≤ -4.2
19,GGAUCUUCUCGAUGUAGCAAAAAAGACAAAUCUGCCACAAAGCUUCAGAGCAUCUUCGGAUGCAGAGGCGGCAGCCUUCGAUGGCGCGAUAGCGCGAACGUUCUCAACUAUGACACGCAGAACGCGUGCUCCGUUGAAUGGAGUUUAUCAUG,≤ -4.2
